In patent US20110145940, “TAL EFFECTOR-MEDIATED DNA MODIFICATION” (published 2011) one finds activity data, which are given here for 1 molecule.

The data set has as its target AvrBs3 TALEN (BamHI fragment-FokI) (Xanthomonas campestris pv. vesicatoria, UniProt P14727 SEQ:26-1141). Briefly: cell_activity; yeast lacZ SSA assay, 18 bp spacer; optima 15 and 21 bp. The conditions noted are these: tags: FokI catalytic domain fusion, N-terminal NLS; chain copies: 2 (inferred); two sites in inverted orientation around spacer.

B1: AvrBs3 site (dsDNA)
DNA 1: ATATAAACCTAACCATCC
DNA 2: GGATGGTTAGGTTTATAT
On to B1, for which the activity is 15.8 fold over target-only control.
